Measured values published in patent US20200157236A1 (CELLDEX THERAPEUTICS, published 2020).
Changes are numbered by the printed parent chain.

B1: Ab330 (antibody, V domains shown)
VH: EVQVVETGGGVVQPGKSLEITCATSGLTFSTAWMYWVRQSSDRRLEWIARIKDKSNKFASDYVESVRGRFTISRDDSRSSVYLQMNNLKEEDTATYYCTTSYGYAWGQGVMVTVSS
VL: DIQMTQSPSSMSASLGDRVTITCQASQDIGNYLIWFQQKPGKSPRPLIYYATNLANGVPSRFSGSRSGSEYSLTITSLESEDMADYHCLQYKQHLTFGSGTKLEIER
notes: rodent hybridoma mAb
B2: Ab320 (antibody, V domains shown)
VH: QVQLQQSGAELVKPGASVKISCKASGYAFSSYWMNWVKQRPGKGLEWIGQIYPGDGDTNYNGKFKGKATLTADKSSSTAYMQLSSLTSEDSAVYFCASYYYGSKAYWGQGTLVTVSA
VL: DIQMTQSPASLAASVGETVTITCRASENIYYSLAWYQQKQGKSPQLLIYNANSLEDGVPSRFSGSGSGTQYSMKINSMQPEDTATYFCKQAYDVPFTFGSGTKLEIKR
notes: rodent hybridoma mAb
B3: Ab329 (antibody, V domains shown)
VH: QVQLKESGPGLVKPSATLSLTCTVSGFSLTSYHVCWIRQTPGKGLEWMGVIWGDGRTTYNPPLKSRLSISRDTSKSQVFLKMSSLKTEDTATYYCARATMTGHGDAWGQGASVTVSS
VL: DIQMTQSPASLSASLEEIVTITCQASQDIDNYLSWYQQKPGKSPHLLIHSATSLADGVPSRFSGGRSGTQFSLKINRLQVEDTGIYYCLQHYSGWTFGGGTKLELKR
notes: rodent hybridoma mAb
B4: Ab414 (antibody, V domains shown)
VH: EVQLVQSGAEVKKPGTSVKLSCKASGYTFTSYWMHWVRQARGQRLEWIGYIKPSSGYTKYAQKFQERVTLTADKSTSTAYMELSSLRSEDTAVYYCARDYYGSSSWFAYWGQGTLVTVSS
VL: EIVMTQSQATLSTSPGERATLSCKASQNVGTNVAWYQQKPGQAPRALIYSASYRYSGVPARFSGSGSGTDFTLTISSVEPEDFAVYYCQQYNSYPYMYTFGQGTKLEIK
notes: humanized
B5: Ab442 (antibody, V domains shown)
VH: B4 VH with T16A, R41P, R44G, F64L, E66G, S84R, E89D
VL: B4 VL with L11M, P15V, A43S, R45K, S50G, Y53T, Y55A, S56T
notes: humanized
B6: Ab446 (antibody, V domains shown)
VH: B4 VH with T16S, T30S, R38K, R41P, R44G, E66G
VL: B4 VL with L11M, P15V, A43S, R45K, S50G, Y53T, Y55A, S56T
notes: humanized
B7: Ab426 (antibody, V domains shown)
VH: B4 VH
VL: B4 VL with Q8P, K24R, N28S, G30S, T31S, V33L
notes: humanized
B8: Ab436 (antibody, V domains shown)
VH: B4 VH with A9P, A61N, Q65K, E66D, V68A
VL: B4 VL with L11M, P15V, A43S, R45K, S50G, Y53T, Y55A, S56T
notes: humanized
B9: Ab430 (antibody, V domains shown)
VH: B4 VH with T16A, R41P, R44G, F64L, E66G, S84R, E89D
VL: B4 VL with Q8P, K24R, N28S, G30S, T31S, V33L
notes: humanized
B10: Ab434 (antibody, V domains shown)
VH: B4 VH with T16S, T30S, R38K, R41P, R44G, E66G
VL: B4 VL with Q8P, K24R, N28S, G30S, T31S, V33L
notes: humanized
B11: Ab438 (antibody, V domains shown)
VH: B4 VH
VL: B4 VL with L11M, P15V, A43S, R45K, S50G, Y53T, Y55A, S56T
notes: humanized
B12: Ab435 (antibody, V domains shown)
VH: B4 VH with E1Q, K12A, R38K, R41P, R44G, A61N, Q65K, E66D, R67K
VL: B4 VL with L11M, P15V, A43S, R45K, S50G, Y53T, Y55A, S56T
notes: humanized
B13: Ab439 (antibody, V domains shown)
VH: QVQLVQSGAEVAKPGASVKLSCKASGYTFTSYWMHWVKQAPGQGLEWIGYIKPSSGYTKYNQKFKDKATLTADKSTSTAYMELRSLRSDDTAVYYCARDYYGSSSWFAYWGQGTLVTVSS
VL: B4 VL with L11M, P15V, A43S, R45K, S50G, Y53T, Y55A, S56T
notes: humanized
B14: Ab406 (antibody, V domains shown)
VH: B4 VH with T16A, R41P, R44G, F64L, E66G, S84R, E89D
VL: B4 VL with L11M, P15V, A43S, R45K
notes: humanized
B15: Ab441 (antibody, V domains shown)
VH: B13 VH with Q1E, K38R
VL: B4 VL with L11M, P15V, A43S, R45K, S50G, Y53T, Y55A, S56T
notes: humanized
B16: Ab440 (antibody, V domains shown)
VH: B13 VH with Q1E, A12K, K38R
VL: B4 VL with L11M, P15V, A43S, R45K, S50G, Y53T, Y55A, S56T
notes: humanized
B17: Ab429 (antibody, V domains shown)
VH: B13 VH with Q1E, K38R
VL: B4 VL with Q8P, K24R, N28S, G30S, T31S, V33L
notes: humanized
B18: Ab432 (antibody, V domains shown)
VH: B13 VH with Q1E, A12K, A16S, K38R, R84S, D89E
VL: B4 VL with Q8P, K24R, N28S, G30S, T31S, V33L
notes: humanized
B19: Ab423 (antibody, V domains shown)
VH: B13 VH with A16T, A68V, R84S, D89E
VL: B4 VL with Q8P, K24R, N28S, G30S, T31S, V33L
notes: humanized
B20: Ab444 (antibody, V domains shown)
VH: B13 VH with Q1E, A12K, A16S, K38R, R84S, D89E
VL: B4 VL with L11M, P15V, A43S, R45K, S50G, Y53T, Y55A, S56T
notes: humanized
B21: Ab433 (antibody, V domains shown)
VH: B13 VH with Q1E, A12K, A16S, L20V, T30S, K38R, R84S, D89E
VL: B4 VL with Q8P, K24R, N28S, G30S, T31S, V33L
notes: humanized
B22: Ab422 (antibody, V domains shown)
VH: B4 VH with T16S, T30S, R38K, R41P, R44G, E66G
VL: B4 VL
notes: humanized
B23: Ab443 (antibody, V domains shown)
VH: B13 VH with A16S, R84S, D89E
VL: B4 VL with L11M, P15V, A43S, R45K, S50G, Y53T, Y55A, S56T
notes: humanized
B24: Ab428 (antibody, V domains shown)
VH: B13 VH with Q1E, A12K, K38R
VL: B4 VL with Q8P, K24R, N28S, G30S, T31S, V33L
notes: humanized
B25: Ab417 (antibody, V domains shown)
VH: B13 VH with Q1E, K38R
VL: B4 VL
notes: humanized
B26: Ab418 (antibody, V domains shown)
VH: B4 VH with T16A, R41P, R44G, F64L, E66G, S84R, E89D
VL: B4 VL
notes: humanized
B27: Ab427 (antibody, V domains shown)
VH: B13 VH
VL: B4 VL with Q8P, K24R, N28S, G30S, T31S, V33L
notes: humanized
B28: Ab431 (antibody, V domains shown)
VH: B13 VH with A16S, R84S, D89E
VL: B4 VL with Q8P, K24R, N28S, G30S, T31S, V33L
notes: humanized
B29: Ab421 (antibody, V domains shown)
VH: B13 VH with Q1E, A12K, A16S, L20V, T30S, K38R, R84S, D89E
VL: B4 VL
notes: humanized
B30: Ab445 (antibody, V domains shown)
VH: B13 VH with Q1E, A12K, A16S, L20V, T30S, K38R, R84S, D89E
VL: B4 VL with L11M, P15V, A43S, R45K, S50G, Y53T, Y55A, S56T
notes: humanized
B31: Ab415 (antibody, V domains shown)
VH: B13 VH
VL: B4 VL
notes: humanized
B32: Ab416 (antibody, V domains shown)
VH: B13 VH with Q1E, A12K, K38R
VL: B4 VL
notes: humanized
B33: Ab424 (antibody, V domains shown)
VH: B4 VH with A9P, A61N, Q65K, E66D, V68A
VL: B4 VL with Q8P, K24R, N28S, G30S, T31S, V33L
notes: humanized
B34: Ab419 (antibody, V domains shown)
VH: B13 VH with A16S, R84S, D89E
VL: B4 VL
notes: humanized
B35: Ab425 (antibody, V domains shown)
VH: B13 VH with Q1E, A12K, A16T, Y32S, W33A, H35Q, R84S, D89E
VL: B4 VL with Q8P, K24R, N28S, G30S, T31S, V33L
notes: humanized

Each binder was assayed against T1, human ALK on the surface of NB1 cells (human, UniProt Q9UM73 21-1620) (assay: flow cytometry titration on NB1 cells, steady state).
T1 construct: ALK of NB1 cells; also called cell surface hALK; NB1 (human)
T1 sequence (Q9UM73 21-1620): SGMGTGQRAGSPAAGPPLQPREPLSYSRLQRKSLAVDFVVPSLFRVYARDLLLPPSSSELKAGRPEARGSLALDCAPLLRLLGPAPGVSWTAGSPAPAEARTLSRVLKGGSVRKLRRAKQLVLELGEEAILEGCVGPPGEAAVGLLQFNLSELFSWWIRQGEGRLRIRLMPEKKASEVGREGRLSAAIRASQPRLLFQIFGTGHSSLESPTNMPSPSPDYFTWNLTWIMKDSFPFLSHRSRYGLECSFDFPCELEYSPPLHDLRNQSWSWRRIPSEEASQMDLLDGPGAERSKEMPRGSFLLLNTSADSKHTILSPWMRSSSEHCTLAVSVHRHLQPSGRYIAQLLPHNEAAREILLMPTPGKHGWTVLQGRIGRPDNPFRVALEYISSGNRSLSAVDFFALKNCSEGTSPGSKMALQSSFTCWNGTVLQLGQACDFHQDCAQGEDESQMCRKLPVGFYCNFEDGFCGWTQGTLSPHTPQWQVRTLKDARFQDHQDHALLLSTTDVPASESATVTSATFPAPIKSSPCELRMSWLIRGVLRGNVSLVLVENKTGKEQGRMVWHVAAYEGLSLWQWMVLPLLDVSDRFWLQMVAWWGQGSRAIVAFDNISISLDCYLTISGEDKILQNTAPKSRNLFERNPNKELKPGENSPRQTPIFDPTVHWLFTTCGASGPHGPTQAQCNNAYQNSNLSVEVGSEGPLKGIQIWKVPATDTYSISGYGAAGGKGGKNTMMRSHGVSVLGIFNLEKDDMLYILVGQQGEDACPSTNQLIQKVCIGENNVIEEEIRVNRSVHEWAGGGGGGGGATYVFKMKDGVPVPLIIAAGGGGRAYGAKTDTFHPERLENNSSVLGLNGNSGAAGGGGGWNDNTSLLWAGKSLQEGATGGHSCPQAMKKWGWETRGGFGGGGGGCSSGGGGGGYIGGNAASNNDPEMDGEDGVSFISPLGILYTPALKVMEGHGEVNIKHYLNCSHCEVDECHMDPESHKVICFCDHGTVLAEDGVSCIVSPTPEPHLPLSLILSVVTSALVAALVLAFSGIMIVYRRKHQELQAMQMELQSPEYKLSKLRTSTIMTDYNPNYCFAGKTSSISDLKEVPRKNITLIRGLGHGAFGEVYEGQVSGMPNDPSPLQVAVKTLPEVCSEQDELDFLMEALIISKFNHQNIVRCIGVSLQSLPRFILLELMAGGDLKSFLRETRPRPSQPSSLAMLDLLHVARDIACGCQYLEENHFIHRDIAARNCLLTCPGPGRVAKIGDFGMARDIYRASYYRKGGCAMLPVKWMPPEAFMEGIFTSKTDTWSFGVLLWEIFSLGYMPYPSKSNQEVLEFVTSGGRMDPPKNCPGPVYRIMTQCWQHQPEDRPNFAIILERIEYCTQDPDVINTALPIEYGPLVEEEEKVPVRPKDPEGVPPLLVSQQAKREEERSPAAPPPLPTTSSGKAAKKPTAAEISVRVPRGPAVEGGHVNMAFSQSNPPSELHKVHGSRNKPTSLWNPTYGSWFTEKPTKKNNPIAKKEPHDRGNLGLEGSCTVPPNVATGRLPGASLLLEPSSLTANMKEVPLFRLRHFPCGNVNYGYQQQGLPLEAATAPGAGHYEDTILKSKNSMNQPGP
Procedure: KD was determined by flow cytometry. Titration of each antibody on NB1 cells for 2-4 hours at 4° C. was followed by incubation with a fluorescently-labeled secondary antibody. The normalized mean fluorescent intensity […] shown as “% Max binding” was plotted as a function of antibody concentration.
Flow cytometry was utilized to measure the affinity at steady state (KD) with which different ALK antibodies bind to ALK on the surface of NB1 cells (FIG. 3). Titration of each antibody on NB1 cells for 2-4 hours at 4° C. was followed by incubation with a fluorescently-labeled secondary antibody. The normalized mean fluorescent intensity (MFI) shown as “% Max binding” was plotted as a function of antibody concentration. The data were fit to a one site binding isotherm using GraphPad Prism, from which affinity values were derived.

| Binder | Kd [nM] |
| --- | --- |
| B1 | 3.13 |
| B2 | 0.35 |
| B3 | 0.34 |

What follows are binders tested against T2, purified ALK protein (BLitz, Table 20) (Homo sapiens (Human), UniProt Q9UM73 19-1038, limits assumed) (assay: BLI (BLitz), mAb on Protein A tip, purified ALK in solution).
T2 construct: also called purified ALK proteins
T2 sequence (Q9UM73 19-1038 limits assumed): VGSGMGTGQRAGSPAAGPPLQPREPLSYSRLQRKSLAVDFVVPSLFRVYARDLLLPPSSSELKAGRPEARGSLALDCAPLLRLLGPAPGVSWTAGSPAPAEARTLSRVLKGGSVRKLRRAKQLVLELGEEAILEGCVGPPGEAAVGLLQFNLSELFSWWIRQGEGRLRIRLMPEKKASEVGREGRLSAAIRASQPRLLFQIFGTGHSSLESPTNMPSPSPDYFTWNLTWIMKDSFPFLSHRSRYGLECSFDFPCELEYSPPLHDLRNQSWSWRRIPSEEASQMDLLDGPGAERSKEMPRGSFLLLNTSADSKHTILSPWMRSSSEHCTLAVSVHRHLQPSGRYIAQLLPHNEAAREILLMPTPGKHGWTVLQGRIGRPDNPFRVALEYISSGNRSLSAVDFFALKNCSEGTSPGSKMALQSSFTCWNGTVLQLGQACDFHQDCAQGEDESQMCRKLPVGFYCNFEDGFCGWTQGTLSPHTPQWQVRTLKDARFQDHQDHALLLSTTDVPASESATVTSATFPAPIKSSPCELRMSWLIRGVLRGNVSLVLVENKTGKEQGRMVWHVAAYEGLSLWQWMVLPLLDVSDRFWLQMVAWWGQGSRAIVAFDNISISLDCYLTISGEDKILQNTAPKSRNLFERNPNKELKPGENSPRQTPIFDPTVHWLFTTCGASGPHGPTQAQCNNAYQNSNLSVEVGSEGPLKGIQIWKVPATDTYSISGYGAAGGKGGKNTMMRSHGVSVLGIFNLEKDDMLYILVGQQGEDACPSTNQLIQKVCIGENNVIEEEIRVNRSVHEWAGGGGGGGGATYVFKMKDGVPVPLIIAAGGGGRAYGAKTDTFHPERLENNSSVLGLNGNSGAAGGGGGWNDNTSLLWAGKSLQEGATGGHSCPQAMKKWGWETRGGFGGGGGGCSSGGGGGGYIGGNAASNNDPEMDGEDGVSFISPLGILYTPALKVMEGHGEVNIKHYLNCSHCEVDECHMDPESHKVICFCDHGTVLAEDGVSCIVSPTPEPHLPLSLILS
Procedure: Kinetic measurements of the monovalent affinity of the 96 humanized ALK antibody variants (Ab351-Ab446) were collected. Affinity ranking was performed using a BLitz® System (ForteBio, Menlo Park, Calif.). Humanized anti-ALK antibodies were immobilized at 0.5 mg/mL using Protein A tips. Once baseline stability was ensured, purified ALK proteins at 70 μg/mL were added. The resulting kinetic data were fit to a single binding site equation, from which the quoted monovalent KD values were derived.

| Binder | Kd [nM] |
| --- | --- |
| B4 | 142 |
| B5 | 219 |
| B6 | 393 |
| B7 | 868 |
| B8 | 120 |
| B9 | 211 |
| B10 | 329 |
| B11 | 310 |
| B12 | 317 |
| B13 | 138 |
| B14 | 110 |
| B15 | 167 |
| B16 | 138 |
| B17 | 326 |
| B18 | 337 |
| B19 | 266 |

| Binder | Kd [nM] |
| --- | --- |
| B20 | 236 |
| B21 | 197 |
| B22 | 173 |
| B23 | 145 |
| B24 | 253 |
| B25 | 170 |
| B26 | 131 |
| B27 | 162 |
| B28 | 252 |
| B29 | 280 |
| B30 | 521 |
| B31 | 128 |
| B32 | 180 |
| B33 | 247 |
| B34 | 107 |
| B35 | 2290 |
